# In US11840557B2, “Wnt7 variants capable of activating g-protein coupled receptor (Gpr)124/Reck/frizzled/lipoprotein receptor-related protein (LRP)-mediated Wnt signaling” (UNIVERSITÉ LIBRE DE BRUXELLES, priority 2018, dated 2023):
# How the values were obtained:
# zebrafish zygote = type: in vivo, Danio rerio; settings: injection in zygote, 3 dpf larvae
# Experimental: (§1) The following splice-blocking morpholino (MOs) (GeneTools, Eugene, OR) were injected into embryos at the one-cell stage: wnt7aa ([…], 6 ng) (SEQ ID NO.: 123). Synthetic mRNAs were transcribed from pCS2 plasmids after NotI digestion using the mMessage mMachine SP6 Kit (Ambion, Carlsbad, CA) and injected into one-cell stage zebrafish embryo. For Xenopus laevis microinjection, 15 pg of wnt7a or wnt7a^K190A or wnt7a^1-278 mRNA were injected into one ventral blastomere of the four-cell stage embryo.
# (§2) zebrafish embryos were imaged with an LSM710 confocal microscope and images were processed in ImageJ. Images of zebrafish development phenotypes were taken on Leica M165 FC. Xenopus larvae were imaged with an Olympus SZX16.
# wnt7aa morphants = test: Trunk DRG rescue in wnt7aa morphant zebrafish larvae; type: in vivo, Danio rerio; settings: 100 pg mRNA injection, 72 hpf
# Experimental: Zebrafish (Danio rerio) were raised and handled under standard conditions following the rules of the State of Belgium (protocol approval number: CEBEA-IBMM-2017-22:65). The following line was used: Tg(−17.0neurog1:EGFP)^w61 (McGraw et al., J. Neurosci 28(47):12558-69 (2008)).
# as §1, §2
# all 10 Fz genes = test: STF luciferase assay after co-transfection with all 10 Fz genes, no Gpr124/Reck; type: cell-based; settings: in the absence of Gpr124/Reck
# Experimental: Cells were plated into 96-well plates and transfected after 24 h in triplicate with Lipofectamine 2000 (Invitrogen, Carlsbad, Calif.). The amount of plasmid DNA transfected per well was optimized for each expression vector: Renilla luciferase (0.5 ng), Wnt (20 ng), Fz (5 ng), LRP (2.5 ng), Gpr124 (10 ng), Reck (10 ng) unless otherwise indicated. The total amount of DNA was adjusted to 100 ng per well with the empty pCS2 vector. Cells were harvested in passive lysis buffer (E1960, Promega, Wisconsin) and the activities of the Firefly and Renilla luciferases were measured sequentially using the Dual-Luciferase Reporter Assay system (E1960, Promega, Madison, Wis.) 48 h post-transfection.
# [1] = tested on: Wnt7aa^−/− mutant zebrafish; test: Transgenic endothelial expression (kdrl promoter) in Wnt7aa−/− zebrafish: hindbrain CtAs and GLUT1 staining; type: in vivo, Danio rerio; settings: 60 hpf embryos
# From the text: (A) Dorsal views of the cerebral vasculatures of 60 hpf WT or Wnt7aa^−/− Tg(kdrl:EGFP) embryos. In Wnt7a^−/− mutants, the intracerebral CtAs are lacking. Wnt7, Wnt7a^K190A or Wnt7a^1-278 were transiently expressed in the endothelium of Wnt7aa^−/− embryos under the control of an endothelial-specific kdrl (Vascular endothelial growth factor receptor kdr-like) promoter. The Wnt7 ligands were expressed as a biscistronic construct with BFP (Blue Fluorescent Protein) used as transgenesis marker. In contrast to uninjected embryos, Wnt7, Wnt7a^K190A or Wnt7a^1-278 restore hindbrain CtAs formation in Wnt7aa^−/− mutants as quantified in (B). (C) Anti-GLUT1 staining of the CtAs after transgenic expression of Wnt7, Wnt7a^K190A and Wnt7a^1-278 in 60 hpf Wnt7aa^−/− embryos. Transgenic expression was achieved as in (A).
# Mouse Wnt7, Wnt7a^K190A and Wnt7a^1-278 were transiently expressed in the endothelium of Wnt7aa^−/− embryos under the control of an endothelial-specific kdrl (Vascular endothelial growth factor receptor kdr-like) promoter. The Wnt7 ligands were expressed as a biscistronic construct with BFP (Blue Fluorescent Protein) as transgenesis marker.
molecule,measurement,setting,value
"Wnt7a^K190A: single-residue variant of full-length mWnt7a (precursor numbering); Gpr124/Reck-selective agonist (protein, human Wnt7a variant K159A) LGASIICNKIPGLAPRQRAICQSRPDAIIVIGEGSQMGLDECQFQFRNGRWNCSALGERTVFGKELKVGSREAAFTYAIIAAGVAHAITAACTQGNLSDCGCDKEKQGQYHRDEGWKWGGCSADIRYGIGFAKVFVDAREIKQNARTLMNLHNNEAGRAILEENMKLECKCHGVSGSCTTKTCWTTLPQFRELGYVLKDKYNEAVHVEPVRASRNKRPTFLKIKKPLSYRKPMDTDLVYIEKSPNYCEEDPVTGSVGTQGRACNKTAPQASGCDLMCCGRGYNTHQYARVWQCNCKFHWCCYVKCNTCSERTEMYTCK",mRNA dose well tolerated without posteriorizing or gross anatomical alterations,zebrafish zygote,≤ 100 pg
same,DRG rescue,wnt7aa morphants,significant DRG rescues
same,signaling through any Fz,all 10 Fz genes,failed to signal through any Fz
same,blood-brain barrier (GLUT1 expression),[1]; anti-GLUT1 staining of CtAs,restored blood-brain barrier
same,brain angiogenesis / hindbrain CtAs formation,[1]; transient endothelial expression,triggered GPR124/RECK-dependent brain angiogenesis
